Common to all, as to settings: tags: N-terminal Flag and nuclear localization signal, C-terminal VP64
The target of data set [1] is T1, pTac2-VP64 (PPR motif region) (Arabidopsis thaliana, UniProt Q9S7Q2 SEQ:106-632).
T1 chain: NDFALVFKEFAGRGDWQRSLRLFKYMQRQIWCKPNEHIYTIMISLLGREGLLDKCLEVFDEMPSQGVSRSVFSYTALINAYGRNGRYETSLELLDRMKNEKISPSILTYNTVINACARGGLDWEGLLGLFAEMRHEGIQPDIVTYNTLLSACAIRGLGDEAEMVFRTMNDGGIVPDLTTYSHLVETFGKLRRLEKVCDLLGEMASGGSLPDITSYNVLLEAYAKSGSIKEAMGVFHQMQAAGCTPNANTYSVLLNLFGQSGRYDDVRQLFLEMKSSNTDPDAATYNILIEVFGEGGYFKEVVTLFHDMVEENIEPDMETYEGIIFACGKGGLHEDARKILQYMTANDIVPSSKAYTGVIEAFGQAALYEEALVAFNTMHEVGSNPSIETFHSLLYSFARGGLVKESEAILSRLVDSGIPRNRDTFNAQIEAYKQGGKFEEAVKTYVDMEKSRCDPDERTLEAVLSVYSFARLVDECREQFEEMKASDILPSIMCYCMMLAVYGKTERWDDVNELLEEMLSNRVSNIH
The data set can be described thus: cell_activity; 8x target reporter; HEK293T, Fluc/Rluc vs pminCMV-luc2. As for the experimental part: (§1) A reporter vector (pminCMV-luc2, SEQ ID NO: 10) was prepared, in which the firefly luciferase gene was ligated downstream from the Minimal CMV promoter, and a multi-cloning site was placed upstream of the promoter. The predicted target sequence of each PPR was inserted into the vector at the multi-cloning site. The target sequence of each PPR ([…] for p63, […] for pTac2, and […] for GUN1, SEQ ID NOS: 11 to 13 in Sequence Listing) was determined by predicting the motif-DNA recognition codes of DNA-binding type PPR from the motif-RNA recognition codes observed in the RNA-binding type PPR. For each PPR, sequences containing 4 or 8 of target sequences were prepared, and used in the following assay. The nucleotide sequences of the vectors are shown as SEQ ID NOS: 14 to 19 in Sequence Listing. […]
(§2) The luciferase activity was compared for the cases of introducing pTac2-VP64 or GUN1-VP64 together with pminCMV-luc2 for a negative control, or the reporter vector having 4 or 8 target sequences (table mentioned below, FIG. 6). The comparison of the activity was performed on the basis of standardized scores obtained by dividing the measured values obtained with Fluc (firefly luciferase) with the measured value obtained with Rluc (Renilla luciferase) as the reference (Fluc/Rluc).

Data set [2] concerns the target T2, GUN1-VP64 (PPR motif region) (Arabidopsis thaliana, UniProt Q9SIC9 SEQ:234-621).
T2 chain: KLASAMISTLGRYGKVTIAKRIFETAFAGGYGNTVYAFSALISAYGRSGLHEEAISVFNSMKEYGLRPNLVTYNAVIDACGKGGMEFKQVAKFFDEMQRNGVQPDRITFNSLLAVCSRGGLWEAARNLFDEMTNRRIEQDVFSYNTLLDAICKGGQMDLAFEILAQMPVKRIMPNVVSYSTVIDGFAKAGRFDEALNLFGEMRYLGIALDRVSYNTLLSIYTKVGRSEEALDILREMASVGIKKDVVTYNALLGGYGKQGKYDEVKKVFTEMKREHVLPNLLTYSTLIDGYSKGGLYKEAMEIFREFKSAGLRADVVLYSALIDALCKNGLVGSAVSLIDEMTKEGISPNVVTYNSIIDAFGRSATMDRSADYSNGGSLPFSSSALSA
Described as above. As for the experimental part:
as §1, §2

The target of data set [3] is T2, GUN1-VP64 (PPR motif region). The data set can be described thus: cell_activity; 4x target reporter; HEK293T, Fluc/Rluc vs pminCMV-luc2. As for the experimental part: as §1, §2

B1: pTac2 predicted target (dsDNA)
DNA 1: AACTTTCGTCACTCA
DNA 2: TGAGTGACGAAAGTT
For the molecule B1, the activity in data set [1] was determined as 4.89 fold activation.

B2: GUN1 predicted target (dsDNA)
DNA 1: AATTTGTCGAT
DNA 2: ATCGACAAATT
As to B2, the results for the activity in data set [2] and in data set [3] were 3.15 fold activation and 2.88 fold activation, respectively.

Source of the values: patent publication US20190169240, “DNA-BINDING PROTEIN USING PPR MOTIF, AND USE THEREOF” (KYUSHU UNIVERSITY, NAT'L UNIVERSITY CORPORATION, published 2019).
